Target: VC-OsSLAC1 (rice (Oryza sativa))
Assay: split reporter (BiFC, NanoBiT); BiFC with Venus halves (VN, VC) co-expressed in rice protoplasts; confocal microscopy; ER-mCherry as internal control, Venus signal/mCherry signal

B1: VN-SAPK10 (natural protein)
chain: MDRAALTVGPGMDMPIMHDGDRYELVRDIGSGNFGVARLMRSRADGQLVAVKYIERGDKIDENVQREIINHRSLRHPNIIRFKEVILTPTHLAIVMEYASGGELFERICNAGRFSEDEARFFFQQLISGVSYCHSMQVCHRDLKLENTLLDGSTAPRLKICDFGYSKSSVLHSQPKSTVGTPAYIAPEVLLKKEYDGKIADVWSCGVTLYVMLVGAYPFEDPDEPKNFRKTIQRILGVQYSIPDYVHISPECRDLIARIFVANPATRISIPEIRNHPWFLKNLPADLMDDSKMSSQYEEPEQPMQSMDEIMQILAEATIPAAGSGGINQFLNDGLDLDDDMEDLDSDPDLDVESSGEIVYAM
BiFC fluorescence (Venus signal/mCherry signal) relative to VN-Hd3A with VC-SLAC1: 3 fold

Reference: article PMC6536566
